Reference: paper PMC13391367

Target: UAP56 (UniProt Q13838 1-428)
Assay: pull-down (NeutrAvidin beads, RNA unclamping assay); ATP, 2 mM Mg2+; clamped UAP56-ADP-Pi-RNA complex, no release factor; RNA unclamping: 20 mM HEPES pH 7.9, 40 mM KCl, 2 mM MgCl2, 5% glycerol, 0.1% Igepal CA-630, 1 mM ATP at loading, room temperature, 500 mM KCl wash; cryo-EM: 25
Conditions: protein: recombinant; tags: 10xHis-3C (N-term); single strand

UAP56, sequence (Q13838 whole entry): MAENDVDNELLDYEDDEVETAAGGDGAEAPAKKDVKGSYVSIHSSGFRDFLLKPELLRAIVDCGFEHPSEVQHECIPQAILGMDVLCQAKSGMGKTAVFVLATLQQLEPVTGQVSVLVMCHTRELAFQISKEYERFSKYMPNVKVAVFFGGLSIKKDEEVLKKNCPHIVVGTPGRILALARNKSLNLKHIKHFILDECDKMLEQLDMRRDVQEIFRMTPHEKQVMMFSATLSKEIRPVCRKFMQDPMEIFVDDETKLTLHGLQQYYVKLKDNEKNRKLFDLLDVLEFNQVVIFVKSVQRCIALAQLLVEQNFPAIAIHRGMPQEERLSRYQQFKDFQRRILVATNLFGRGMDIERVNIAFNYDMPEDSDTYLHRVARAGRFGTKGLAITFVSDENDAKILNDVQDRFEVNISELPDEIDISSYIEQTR

UUUUUUUUUUUUUUU (ssRNA) [biotinylated 15U RNA]: binds.
